Results: patent US20140219978A1 (published 2014)

Legend:
[1] = biological target: none (gp100-negative cells) peptide on HLA-A2 (human); test: RNA-electroporated human PBL with HLA-A2+ gp100-negative melanoma A375; 31 pg/ml for transduced PBL in Table 7; text: did not recognize melanoma cell lines not expressing gp100; full-length, on cells; conditions: chains Valpha:Vbeta
[2] = biological target: T1, gp100 peptide on HLA-A*02:01 (human); test: multimer staining
T1 peptide: ITDQVPFSV

- IFN-gamma release [1]: 45 pg/mL
- binding result [2]: no recognition
B1: Sp(0.01)A TCR (TCR, V domains shown)
Valpha: QQKVQQSPESLIVPEGAMTSLNCTFSDSASQYFAWYRQHSGKAPKALMSIFSNGEKEEGRFTIHLNKASLHFSLHIRDSQPSDSALYLCAANNYAQGLTFGLGTRVSVFP
Vbeta: EAAVTQSPRSKVAVTGGKVTLSCHQTNNHDYMYWYRQDTGHGLRLIHYSYVADSTEKGDIPDGYKASRPSQENFSLILELASLSQTAVYFCASSPGGGGEQYFGPGTRLTVL
